This assay has as its target human complement receptor 3 (CR3) on CR3-transfected CHO cells (CHO/CR3) (human), P11215. Nature of the assay: flow cytometry on cells. The settings on record: remark: other sources report otherwise.

B1: Factor H (fH), purified human, P08603 19-1231 (natural protein)
chain: EDCNELPPRRNTEILTGSWSDQTYPEGTQAIYKCRPGYRSLGNVIMVCRKGEWVALNPLRKCQKRPCGHPGDTPFGTFTLTGGNVFEYGVKAVYTCNEGYQLLGEINYRECDTDGWTNDIPICEVVKCLPVTAPENGKIVSSAMEPDREYHFGQAVRFVCNSGYKIEGDEEMHCSDDGFWSKEKPKCVEISCKSPDVINGSPISQKIIYKENERFQYKCNMGYEYSERGDAVCTESGWRPLPSCEEKSCDNPYIPNGDYSPLRIKHRTGDEITYQCRNGFYPATRGNTAKCTSTGWIPAPRCTLKPCDYPDIKHGGLYHENMRRPYFPVAVGKYYSYYCDEHFETPSGSYWDHIHCTQDGWSPAVPCLRKCYFPYLENGYNQNYGRKFVQGKSIDVACHPGYALPKAQTTVTCMENGWSPTPRCIRVKTCSKSSIDIENGFISESQYTYALKEKAKYQCKLGYVTADGETSGSITCGKDGWSAQPTCIKSCDIPVFMNARTKNDFTWFKLNDTLDYECHDGYESNTGSTTGSIVCGYNGWSDLPICYERECELPKIDVHLVPDRKKDQYKVGEVLKFSCKPGFTIVGPNSVQCYHFGLSPDLPICKEQVQSCGPPPELLNGNVKEKTKEEYGHSEVVEYYCNPRFLMKGPNKIQCVDGEWTTLPVCIVEESTCGDIPELEHGWAQLSSPPYYYGDSVEFNCSESFTMIGHRSITCIHGVWTQLPQCVAIDKLKKCKSSNLIILEEHLKNKKEFDHNSNIRYRCRGKEGWIHTVCINGRWDPEVNCSMAQIQLCPPPPQIPNSHNMTTTLNYRDGEKVSVLCQENYLIQEGEEITCKDGRWQSIPLCVEKIPCSQPPQIEHGTINSSRSSQESYAHGTKLSYTCEGGFRISEENETTCYMGKWSSPPQCEGLPCKSPPEISHGVVAHMSDSYQYGEEVTYKCFEGFGIDGPAIAKCLGEKWSHPPSCIKTDCLSLPSFENAIPMGEKKDVYKAGEQVTYTCATYYKMDGASNVTCINSRWTGRPTCRDTSCVNPPTVQNAYIVSRQMSKYPSGERVRYQCRSPYEMFGDEEVMCLNGNWTEPPQCKDSTGKCGPPPPIDNGDITSFPLSVYAPASSVEYQCQNLYQLEGNKRITCRNGQWSEPPKCLHPCVISREIMENYNIALRWTAKQKLYSRTGESVEFVCKRGYRLSSRSHTLRTTCWDGKLEYPTCAKR
Turning to B1, the fold increase in binding to CHO/CR3 cells compared to CHO/NEO cells turned out to be 4 fold.

(Values after paper PMC2944003.)
